Measured values as given in patent US20260125472A1 (HEFEI TG IMMUNOPHARMA, published 2026).

Columns and labels:
CD3E&D protein [1] = target: T1, CD3E&D protein (UniProt P04234 22-105); test: ELISA, coated CD3E&D protein, OD450 [panel A]
T1 construct: Purchased from Acro; also called CD3 E&D antigens; CD3E&D antigen protein
Experimental: (§1) In this example, the binding properties of the parental antibody Cross3 and the CD3 affinity-reduced antibody (the production method and the amino acid sequences of the heavy and light chains were shown in Example 1) were detected by ELISA. The CD3E&D protein was coated onto a 96-well plate by the inventors, and the strength of the signal after the addition of the antibody was used to determine the binding properties of the antibody and CD3E&D.
(§2) CD3E&D protein (purchased from Acro) was diluted to 2 μg/ml with PBS buffer, added to a 96-well plate at a volume of 100 μL/well, and placed at 4° C. overnight. The PBS buffer in the 96-well plate was aspirated, and the plate was washed 6 times with PBST (pH 7.2 PBS containing 0.1% Tween 20) buffer. Then, 200 μL/well PBS/10% BSA was added and incubated at 37° C. for 2 h for blocking. The blocking solution was removed, and the plate was washed six times with PBST. Then, the to-be-tested antibodies serially diluted with PBST/0.05% BSA, Cross3, Cross303, Cross307, Cross308, Cross309, Cross310, Cross311, Cross312, Cross313, Cross314, Cross316, Cross317, Cross318, Cross323, Cross325, Cross326, and control IgG1 (purchased from Bio-Tech) were added at 100 μL/well, and incubated at 37° C. for 1 h. The reaction system was removed, and the plate was washed 6 times with PBST. Then, the cells were incubated at 37° C. for 1 h with HRP (horseradish peroxidase)-labeled anti-human secondary antibody (Fab specific) (purchased from Sigma) serially diluted with PBST/0.05% BSA at 100 μL/well. The plate was washed six times with PBST, TMB (tetramethylbenzidine) was added at 80 μL/well and incubated at room temperature for 3 min. 4 M sulfuric acid was added at 80 μL/well to terminate the reaction. The absorbance was read at 450 nm using a microplate reader.

CD3E&D protein [2] = target: T1, CD3E&D protein; test: SPR (Biacore 8K), antibody on CM5 chip, CD3 E&D antigen as analyte; set-up: Fold change: reference not given here
Experimental: In a Biacore 8K (Cytiva) system, the antibody was diluted to 10 μg/mL in HBS-EP running buffer and coupled to a CM5 chip (Cytiva) at a flow rate of 10 μL/min.

CD3E&D protein [3] = target: T1, CD3E&D protein; test: ELISA, coated CD3E&D protein, OD450 [panel B]
Experimental: as §1, §2

CD3 on CD8 T cells = target: T2, CD3 on CD8 T cells (Homo sapiens (Human), UniProt P07766 23-207); test: flow cytometry, CD8 T cells in PBMCs, binding ratio % [panel A]
T2 construct: Native CD3 complex on CD8 T cells among PBMCs; also called T cells (PBMCs gated with anti-human CD8 antibody)
T2 sequence (P07766 23-207 limits assumed): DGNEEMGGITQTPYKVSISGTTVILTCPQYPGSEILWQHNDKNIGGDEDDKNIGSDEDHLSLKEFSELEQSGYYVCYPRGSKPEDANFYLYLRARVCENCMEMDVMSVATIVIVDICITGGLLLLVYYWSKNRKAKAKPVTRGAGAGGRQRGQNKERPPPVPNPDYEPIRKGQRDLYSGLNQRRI
Experimental: PBMCs were diluted with PBS to 2×10⁶/mL and added to a 1.5 ml EP tube at a volume of 100 μL/tube, 10 μL/tube of goat serum was added thereto and incubated at 4° C. for 30 min for blocking. […] 1 mL of PBS was added to the EP tube, followed by centrifugation at 3500 rpm for 5 min at 4° C. The supernatant was discarded, and the cells were washed again with PBS. After centrifugation, the supernatant was discarded, and the cells were resuspended with 100 μl/tube PBS. 1 μl/tube Alexa-647-labeled goat anti-human secondary antibody (purchased from Jackson lab) and 0.5 μl/tube PerCP-Cy5.5-labeled anti-human CD8 antibody were added and incubated at 4° C. in the dark for 30 min. The cells were washed twice with PBS, and the supernatant was discarded after centrifugation. The cells were resuspended with […] of PBS and assayed using the flow cytometry.

T1 sequence (chain, as listed by the source limits assumed, chain 1 of 2): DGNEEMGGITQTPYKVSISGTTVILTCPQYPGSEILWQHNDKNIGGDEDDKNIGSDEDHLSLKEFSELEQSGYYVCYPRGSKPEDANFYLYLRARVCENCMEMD
T1 sequence (P04234 22-105 limits assumed, chain 2 of 2): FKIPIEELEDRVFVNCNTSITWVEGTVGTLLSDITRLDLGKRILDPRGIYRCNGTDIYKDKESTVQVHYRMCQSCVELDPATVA

Row | Binder | EC50 (read off the curve) (CD3E&D protein [1]) [µg/mL] | Fold change (CD3E&D protein [2]) | Kd (CD3E&D protein [2]) [nM] | koff (CD3E&D protein [2]) [s⁻¹] | kon (CD3E&D protein [2]) [M⁻¹ s⁻¹] | EC50 (read off the curve) (CD3E&D protein [3]) [µg/mL] | EC50 (read off the curve) (CD3 on CD8 T cells) [µg/mL]
1 | Cross303 (antibody, human IgG1, kappa, V domains shown) VH: EVQLLESGGGLVQPGGSLKLSCAASGFTFNTYAMNWVRQAPGKGLEWVARIRSKYNNYATYYADSVKDRFTISRDDSKNTAYLQMNNLKTEDTAVYYCVRHGMFGNSYVSWFAYWGQGTLVTVSS VL: ELVVTQEPSLTVSPGGTVTLTCRSSTGAVTTSNYANWVQQKPGQAPRGLIGGTNKRAPGTPARFSGSLLGGKAALTLSGVQPEDEAEYYCALWYSNLWVFGGGTKLTVLR | ~0.03 | 12.7 | 2.09 | 0.0991 | 4.75e+07 | – | –
2 | Cross313 (antibody, human IgG1, kappa, V domains shown) VH: EVQLLESGGGLVQPGGSLKLSCAASGFTFNTYAMNWVRQAPGKGLEWVARIRSKYNNYATYYADSVKDRFTISRDDSKNTAYLQMNNLKTEDTAVYYCVRHGNFGNSYQSWFAYWGQGTLVTVSS VL: ELVVTQEPSLTVSPGGTVTLTCRSSTGAVTTSNYANWVQQKPGQAPRGLIGGTNKRAPGTPARFSGSLLGGKAALTLSGVQPEDEAEYYCALWYSNLWVFGGGTKLTVLR | – | 11.6 | 1.92 | 0.00567 | 2.96e+06 | ~0.03 | ~0.3
3 | Cross309 (antibody, human IgG1, kappa, V domains shown) VH: EVQLLESGGGLVQPGGSLKLSCAASGFTFNTYAMNWVRQAPGKGLEWVARIRSKYNNYATYYADSVKDRFTISRDDSKNTAYLQMNNLKTEDTAVYYCVRHGNFGNVYVSWFAYWGQGTLVTVSS VL: ELVVTQEPSLTVSPGGTVTLTCRSSTGAVTTSNYANWVQQKPGQAPRGLIGGTNKRAPGTPARFSGSLLGGKAALTLSGVQPEDEAEYYCALWYSNLWVFGGGTKLTVLR | ~0.03 | 11.1 | 1.83 | 0.0124 | 6.76e+06 | – | ~0.4
4 | Cross311 (antibody, human IgG1, kappa, V domains shown) VH: EVQLLESGGGLVQPGGSLKLSCAASGFTFNTYAMNWVRQAPGKGLEWVARIRSKYNNYATYYADSVKDRFTISRDDSKNTAYLQMNNLKTEDTAVYYCVRHGNFGNSEVSWFAYWGQGTLVTVSS VL: ELVVTQEPSLTVSPGGTVTLTCRSSTGAVTTSNYANWVQQKPGQAPRGLIGGTNKRAPGTPARFSGSLLGGKAALTLSGVQPEDEAEYYCALWYSNLWVFGGGTKLTVLR | – | 27.6 | 4.55 | 0.00959 | 2.11e+06 | ~0.03 | ~0.3
5 | Cross314 (antibody, human IgG1, kappa, V domains shown) VH: EVQLLESGGGLVQPGGSLKLSCAASGFTFNTYAMNWVRQAPGKGLEWVARIRSKYNNYATYYADSVKDRFTISRDDSKNTAYLQMNNLKTEDTAVYYCVRHGNFGNSYSSWFAYWGQGTLVTVSS VL: ELVVTQEPSLTVSPGGTVTLTCRSSTGAVTTSNYANWVQQKPGQAPRGLIGGTNKRAPGTPARFSGSLLGGKAALTLSGVQPEDEAEYYCALWYSNLWVFGGGTKLTVLR | – | 26.5 | 4.37 | 0.00887 | 2.03e+06 | ~0.03 | ~0.4
6 | Cross307 (antibody, human IgG1, kappa, V domains shown) VH: EVQLLESGGGLVQPGGSLKLSCAASGFTFNTYAMNWVRQAPGKGLEWVARIRSKYNNYATYYADSVKDRFTISRDDSKNTAYLQMNNLKTEDTAVYYCVRHGNFGNEYVSWFAYWGQGTLVTVSS VL: ELVVTQEPSLTVSPGGTVTLTCRSSTGAVTTSNYANWVQQKPGQAPRGLIGGTNKRAPGTPARFSGSLLGGKAALTLSGVQPEDEAEYYCALWYSNLWVFGGGTKLTVLR | ~0.03 | 21 | 3.47 | 0.00473 | 1.36e+06 | – | –
7 | Cross316 (antibody, human IgG1, kappa, V domains shown) VH: EVQLLESGGGLVQPGGSLKLSCAASGFTFNTYAMNWVRQAPGKGLEWVARIRSKYNNYATYYADSVKDRFTISRDDSKNTAYLQMNNLKTEDTAVYYCVRHGNFGNSYVSWFLYWGQGTLVTVSS VL: ELVVTQEPSLTVSPGGTVTLTCRSSTGAVTTSNYANWVQQKPGQAPRGLIGGTNKRAPGTPARFSGSLLGGKAALTLSGVQPEDEAEYYCALWYSNLWVFGGGTKLTVLR | – | 20.8 | 3.43 | 0.00249 | 728000 | ~0.03 | ~0.3
8 | Cross308 (antibody, human IgG1, kappa, V domains shown) VH: EVQLLESGGGLVQPGGSLKLSCAASGFTFNTYAMNWVRQAPGKGLEWVARIRSKYNNYATYYADSVKDRFTISRDDSKNTAYLQMNNLKTEDTAVYYCVRHGNFGNPYVSWFAYWGQGTLVTVSS VL: ELVVTQEPSLTVSPGGTVTLTCRSSTGAVTTSNYANWVQQKPGQAPRGLIGGTNKRAPGTPARFSGSLLGGKAALTLSGVQPEDEAEYYCALWYSNLWVFGGGTKLTVLR | ~0.03 | 11.8 | 1.95 | 0.0209 | 1.07e+07 | – | –
9 | Cross312 (antibody, human IgG1, kappa, V domains shown) VH: EVQLLESGGGLVQPGGSLKLSCAASGFTFNTYAMNWVRQAPGKGLEWVARIRSKYNNYATYYADSVKDRFTISRDDSKNTAYLQMNNLKTEDTAVYYCVRHGNFGNSYHSWFAYWGQGTLVTVSS VL: ELVVTQEPSLTVSPGGTVTLTCRSSTGAVTTSNYANWVQQKPGQAPRGLIGGTNKRAPGTPARFSGSLLGGKAALTLSGVQPEDEAEYYCALWYSNLWVFGGGTKLTVLR | – | 21.2 | 3.5 | 0.0107 | 3.05e+06 | ~0.03 | ~0.3
10 | Cross310 (antibody, human IgG1, kappa, V domains shown) VH: EVQLLESGGGLVQPGGSLKLSCAASGFTFNTYAMNWVRQAPGKGLEWVARIRSKYNNYATYYADSVKDRFTISRDDSKNTAYLQMNNLKTEDTAVYYCVRHGNFGNYYVSWFAYWGQGTLVTVSS VL: ELVVTQEPSLTVSPGGTVTLTCRSSTGAVTTSNYANWVQQKPGQAPRGLIGGTNKRAPGTPARFSGSLLGGKAALTLSGVQPEDEAEYYCALWYSNLWVFGGGTKLTVLR | ~0.03 | 16.8 | 2.77 | 0.00613 | 2.22e+06 | – | ~0.3
